From article PMC3326314 (Nucleic Acids Research, 2011) come the findings set out here.

The target in data set [1] is T1, Rap1Δ[591-597] (Saccharomyces cerevisiae, UniProt P11938 1-827, del591-597).
T1 sequence: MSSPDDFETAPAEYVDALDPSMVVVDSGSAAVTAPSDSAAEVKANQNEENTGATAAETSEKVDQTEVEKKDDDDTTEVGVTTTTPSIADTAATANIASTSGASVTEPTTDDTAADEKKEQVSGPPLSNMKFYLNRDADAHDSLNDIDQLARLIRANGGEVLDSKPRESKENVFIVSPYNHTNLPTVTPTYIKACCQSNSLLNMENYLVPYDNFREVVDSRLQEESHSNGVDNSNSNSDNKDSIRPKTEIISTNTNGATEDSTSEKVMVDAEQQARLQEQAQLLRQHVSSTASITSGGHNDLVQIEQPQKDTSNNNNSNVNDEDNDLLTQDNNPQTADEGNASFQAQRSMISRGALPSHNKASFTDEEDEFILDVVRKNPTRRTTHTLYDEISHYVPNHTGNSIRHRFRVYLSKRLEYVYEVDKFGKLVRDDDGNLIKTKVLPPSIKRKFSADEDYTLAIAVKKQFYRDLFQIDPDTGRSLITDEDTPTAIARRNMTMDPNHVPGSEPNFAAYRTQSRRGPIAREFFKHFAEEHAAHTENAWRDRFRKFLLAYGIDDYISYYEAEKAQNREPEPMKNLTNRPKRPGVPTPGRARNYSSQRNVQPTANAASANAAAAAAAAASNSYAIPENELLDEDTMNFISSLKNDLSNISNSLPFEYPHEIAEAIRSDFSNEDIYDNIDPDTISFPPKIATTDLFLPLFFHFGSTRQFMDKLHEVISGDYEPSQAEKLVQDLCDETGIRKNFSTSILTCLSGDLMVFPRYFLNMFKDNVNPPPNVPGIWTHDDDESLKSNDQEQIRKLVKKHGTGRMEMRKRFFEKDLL
Briefly: EMSA. A general note: Mobility shift assays separate free from complexed probe on a gel.

The target of data set [2] is T2, Rap1[Y592A-K597A] (Saccharomyces cerevisiae, UniProt P11938 1-827, Y592A;K597A).
T2 sequence: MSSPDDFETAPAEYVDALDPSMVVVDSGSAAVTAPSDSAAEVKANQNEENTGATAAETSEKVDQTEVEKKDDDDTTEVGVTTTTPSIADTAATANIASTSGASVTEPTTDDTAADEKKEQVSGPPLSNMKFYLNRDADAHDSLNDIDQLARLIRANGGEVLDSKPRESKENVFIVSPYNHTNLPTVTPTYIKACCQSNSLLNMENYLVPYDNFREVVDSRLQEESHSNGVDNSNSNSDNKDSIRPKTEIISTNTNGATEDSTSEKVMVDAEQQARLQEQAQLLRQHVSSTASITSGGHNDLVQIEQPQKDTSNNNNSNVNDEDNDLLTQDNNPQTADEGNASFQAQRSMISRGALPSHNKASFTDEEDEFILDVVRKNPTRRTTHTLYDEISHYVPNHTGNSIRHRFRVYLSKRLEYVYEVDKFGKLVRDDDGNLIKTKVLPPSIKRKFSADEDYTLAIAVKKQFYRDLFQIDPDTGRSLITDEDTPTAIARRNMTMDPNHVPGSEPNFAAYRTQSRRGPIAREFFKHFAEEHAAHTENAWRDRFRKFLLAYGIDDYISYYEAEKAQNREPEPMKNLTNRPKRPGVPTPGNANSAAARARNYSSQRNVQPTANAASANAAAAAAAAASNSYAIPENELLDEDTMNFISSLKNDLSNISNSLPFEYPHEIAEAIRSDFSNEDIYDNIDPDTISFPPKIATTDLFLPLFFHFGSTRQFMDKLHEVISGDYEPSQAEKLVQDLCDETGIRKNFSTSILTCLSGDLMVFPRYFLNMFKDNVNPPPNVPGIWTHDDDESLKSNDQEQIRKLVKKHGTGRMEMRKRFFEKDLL
Briefly: EMSA.

The target in data set [3] is T3, Rap1 WT (Rap1-fl) (Saccharomyces cerevisiae, UniProt P11938 1-827).
T3 sequence: T2 sequence with A592Y, A597K
Briefly: SAXS and AUC.

Data set [4] concerns the target T4, Rap1[358-827] (Saccharomyces cerevisiae, UniProt P11938 358-827).
T4 sequence: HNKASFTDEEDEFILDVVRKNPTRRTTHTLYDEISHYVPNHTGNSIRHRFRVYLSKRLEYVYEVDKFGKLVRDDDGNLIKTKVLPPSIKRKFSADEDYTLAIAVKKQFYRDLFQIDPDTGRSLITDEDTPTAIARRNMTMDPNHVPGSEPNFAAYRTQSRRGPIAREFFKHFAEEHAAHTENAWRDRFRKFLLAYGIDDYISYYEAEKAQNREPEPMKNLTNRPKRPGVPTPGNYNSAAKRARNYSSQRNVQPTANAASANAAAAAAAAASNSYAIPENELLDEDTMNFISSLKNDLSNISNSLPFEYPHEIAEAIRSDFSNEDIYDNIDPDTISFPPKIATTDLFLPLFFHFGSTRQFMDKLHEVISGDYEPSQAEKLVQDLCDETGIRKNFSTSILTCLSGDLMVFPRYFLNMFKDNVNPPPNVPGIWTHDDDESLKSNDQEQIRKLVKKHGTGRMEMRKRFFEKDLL
Briefly: SAXS and AUC.

The target in data set [5] is T5, Rap1[117-827] (Saccharomyces cerevisiae, UniProt P11938 117-827).
T5 sequence: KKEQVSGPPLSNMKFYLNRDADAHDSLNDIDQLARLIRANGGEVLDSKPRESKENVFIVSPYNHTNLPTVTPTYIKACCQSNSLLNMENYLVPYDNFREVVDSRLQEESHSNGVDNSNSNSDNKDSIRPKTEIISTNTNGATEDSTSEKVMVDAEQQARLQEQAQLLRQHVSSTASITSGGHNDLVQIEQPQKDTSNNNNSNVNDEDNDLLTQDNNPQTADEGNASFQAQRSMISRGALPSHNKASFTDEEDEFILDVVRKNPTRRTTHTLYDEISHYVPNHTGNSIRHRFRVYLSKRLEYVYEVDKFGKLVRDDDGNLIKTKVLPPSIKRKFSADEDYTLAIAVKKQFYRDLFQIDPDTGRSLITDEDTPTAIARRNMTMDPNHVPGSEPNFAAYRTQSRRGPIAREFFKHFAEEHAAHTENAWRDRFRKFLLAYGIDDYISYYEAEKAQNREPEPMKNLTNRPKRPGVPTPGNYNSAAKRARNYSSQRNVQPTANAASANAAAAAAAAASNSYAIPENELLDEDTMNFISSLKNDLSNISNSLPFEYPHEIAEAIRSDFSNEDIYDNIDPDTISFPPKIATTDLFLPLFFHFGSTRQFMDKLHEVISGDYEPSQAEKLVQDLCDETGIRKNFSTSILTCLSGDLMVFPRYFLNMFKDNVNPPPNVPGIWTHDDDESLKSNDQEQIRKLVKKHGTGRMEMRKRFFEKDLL
In words: SAXS and AUC.

Data set [6] concerns the target T4, Rap1[358-827]. In words: X-ray crystallography.
Data set [7] deals with T6, Rif2 full length (UniProt Q06208 1-395).
T6 sequence (looked up): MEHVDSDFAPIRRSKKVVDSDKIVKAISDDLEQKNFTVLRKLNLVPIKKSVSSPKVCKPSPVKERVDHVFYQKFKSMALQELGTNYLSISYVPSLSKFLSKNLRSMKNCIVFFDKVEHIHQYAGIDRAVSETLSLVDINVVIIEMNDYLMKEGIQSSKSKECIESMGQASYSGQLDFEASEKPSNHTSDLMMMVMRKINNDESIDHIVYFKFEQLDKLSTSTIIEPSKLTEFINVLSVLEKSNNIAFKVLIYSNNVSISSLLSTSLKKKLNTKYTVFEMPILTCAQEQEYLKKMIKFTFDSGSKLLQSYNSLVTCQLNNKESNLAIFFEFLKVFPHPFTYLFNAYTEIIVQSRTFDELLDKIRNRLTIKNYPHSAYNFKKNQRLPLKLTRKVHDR
In words: NMR titration.

Where a chain is given by its changes, count along the chain named.

B1: 21-mer telomeric DNA duplex (ITC and EMSA) (dsDNA)
DNA 1: TCCTGGTGTGTGGGTGTGCGG
DNA 2: GCACACCCACACACCAGGACC
Turning to B1, the binding result in data set [1] and in data set [2] was “binds” throughout.

B2: 20-mer DNA duplex (AUC and SAXS) (dsDNA)
DNA 1: TCCTGGTGTGTGGGTGTGCG
DNA 2: GACGCACACCCACACACCAG
As for B2, the binding result in data set [3], in data set [4] and in data set [5] was “binds” in each case.

B3: 31-mer crystallography duplex (dsDNA)
DNA 1: ACCTGGTGTGTGGGTGTTGTGTGGTGTTCAC
DNA 2: GTGTGAACACCACACAACACCCACACACCAG
Regarding B3, in data set [6], the binding result was “binds”.

B4: Rap1[675-827] (domain or fragment, S. cerevisiae, UniProt P11938 675-827, looked up)
chain: SDFSNEDIYDNIDPDTISFPPKIATTDLFLPLFFHFGSTRQFMDKLHEVISGDYEPSQAEKLVQDLCDETGIRKNFSTSILTCLSGDLMVFPRYFLNMFKDNVNPPPNVPGIWTHDDDESLKSNDQEQIRKLVKKHGTGRMEMRKRFFEKDLL
For the molecule B4, the binding result in data set [7] is “binds”.
